From patent US8440804B2, “Polypeptides having modulatory effects on cells” (Ecole Normale Superieure de Lyon, priority 2006, dated 2013) come the findings set out here.

In one assay the test system is CNA. Description: Yeast two-hybrid assay. The assay is classed as binding, human. The conditions noted are these: point mutant. An excerpt:
(A) Yeast two-hybrid mating assay. TB50α yeast were co-transformed with pSH18-34T (bearing a lacZ reporter gene) and plasmids directing the expression of LexA alone or in fusion with peptide aptamers R5G42, R7G44 or R5G52. MB210a yeast were transformed with the selected cDNA library plasmids directing the expression of CNAβ, CNAγ, and NS5ATP2 truncated proteins. To obtain negative controls, MB210a yeast were also transformed with the empty prey plasmid (pJG4-5) and with pJG4-5 directing the expression of Ras and FKBP12 prey proteins. To obtain a positive control, MB210a yeast were transformed with pJG4-5 directing the expression of RG22 peptide aptamer prey fusion protein that interacts with LexA in the context of most LexA fusion proteins.
The inventors set out to map the R5G42 binding site on CNA. The CNA interacting clones selected in the yeast two-hybrid experiments corresponded to the carboxy-terminal regions of the beta and gamma isoforms, encompassing the calmodulin-binding domain and the auto-inhibitory domain (see FIG. 3B). […] The LexA-R5G52 bait protein may thus not be properly expressed and/or folded in this yeast two-hybrid setting.
(§1) The inventors explored the ability of R5G42 mutants having a one amino acid change as compared to R5G42, to bind to CNA beta and gamma C-Terminal fragments (FIG. 3b) and to NS5A-TP2. To this end, they proceeded to yeast-two hybrid assays as in example 3. CNA beta and gamma C-Terminal fragments (FIG. 3b) and NS5A-TP2 were cloned in three different plasmids (pSH18-34, pJK103 and pRB18-40), which differed from each other in the level of sensitivity of their promoter to the bait/prey complex formation, pSH18-34 having the highest sensitivity and pRB18-40 having the lowest.
The 5′ end of RH6 (upper case) matches part of the HA epitope tag and the 5′ ends of RH4, RH3 and RH7 (upper case) match the 5′ extremity of the ADH terminator. The PCR reactions was performed using pCMV-SPORT6-CnAβ as a template. CnAβCter Δ1, Δ2, CaM were constructed by combining oligonucleotides RH6/RH4, RH6/RH3, RH6/RH7, respectively. […]

In assay [1] the target is T1, CNA beta C-terminal fragment (Homo sapiens, UniProt P16298).
T1 construct: expressed in transfected cells; host or cells: yeast (MB210a transformed with library plasmid, mated with bait strain)
Description: Yeast two-hybrid assays of R5G42 mutants. The assay is classed as binding. The conditions noted are these: plasmids pSH18-34, pJK103, pRB18-40. As to the method:
(§2) The capacity of R5G42 mutants having a one amino acid change as compared to R5G42 to bind CNA beta and gamma C-Terminal fragments (FIG. 3b) and NS5A-TP2 was tested in yeast two-hybrid assays. CNA beta and gamma C-Terminal fragments and NS5A-TP2 were cloned in three different vectors (pSH18-34, pJK103 and pRB18-40). These three plasmids differ from each other in the level of sensitivity of their promoter, pSH18-34 having the highest sensitivity and pRB18-40 having the lowest.
as §1

Assay [2] concerns the target T2, NS5A-TP2 (Homo sapiens, UniProt Q7Z4H3).
T2 construct: expressed in transfected cells; host or cells: yeast
T2 sequence (Q7Z4H3 1-204): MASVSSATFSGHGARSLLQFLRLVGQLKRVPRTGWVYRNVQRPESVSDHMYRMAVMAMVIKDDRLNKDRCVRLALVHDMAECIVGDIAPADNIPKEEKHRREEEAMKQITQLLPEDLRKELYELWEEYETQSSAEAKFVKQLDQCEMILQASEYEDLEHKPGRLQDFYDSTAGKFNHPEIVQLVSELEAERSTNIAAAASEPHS
Description: Yeast two-hybrid assays of R5G42 mutants. The assay is classed as binding. As to conditions: plasmids pSH18-34, pJK103, pRB18-40. As to the method: as §2, §1

The target in assay [3] is T2, NS5A-TP2. Description: Further yeast two-hybrid binding assays (higher sensitivity). The source says:
FIG. 14. Specificity of aptamers according to the invention for CNA and NS5A-TP2 Interaction matrix between peptide aptamers R5G42, C2, C7, C8, N9, R5G44 and R5G52 with CNA constructs CNA1-CNA8 (A) CNA9-11 (B) and NS5A-TP2 (C). An interaction phenotype between CNA3/CNA 11, which both contain the Calmodulin binding domain (CaM) and the auto-inhibitory domain (Al) but not the CNB binding domain (CNB) and the aptamers R5G42, C2, C7, C8 and N9 is observed in a two-hybrid assay. R5G44 and R5G52 aptamers recognize neither the CNA fragments, nor NS5A-TP2. Only aptamers R5G42 and N9 recognize NS5A-TP2.
The inventors proceeded to further yeast two-hybrid binding assays between peptide aptamers R5G42 (SEQ ID 22), C2 (SEQ ID 23), C7 (SEQ ID 27), C8 (SEQ ID 28), N9 (SEQ ID 33), R5G44 and R5G52 with CNA constructs CNA1-CNA8 (FIG. 14A), CNA9-CNA11 (FIG. 14B) and NS5A-TP2 (SEQ ID 15) (FIG. 14C). The sensitivity of this yeast two-hybrid assay was higher than in the experiment reported above.

B1: N9: R5G42 mutant having a one amino acid change (SEQ ID 33) (protein)
chain: MVKQIESKTAFQEALDAAGDKLVVVDFSAAWCGPSAVTFAVCALGPCKMIKPFFHSLSEKYSNVIFLEVDVDDCQDVASECEVKCMPTFQFFKKGQKVGEFSGANKEKLEATINELV
modifications: Aptamer R5G42 mutant N9
Turning to B1, in the assay on CNA, the “two hybrid interaction phenotype against CNA compared to R5G42” value is recorded as “dramatic reduction”. Also, the yeast two-hybrid interaction entry in assay [1] was “not with the CNA beta and gamma C-terminal fragments”; in the assay with NS5A-TP2 [2], “shown to interact with NS5A-TP2”. Besides, the “recognition of NS5A-TP2” value with NS5A-TP2 [3] is “recognized NS5A-TP2”.
